Results: US20150266968A1 (COMPLIX, published 2015)

What was measured:
[1] = molecular target: T1, GST-tagged recombinant human MCL-1 (residues 172 to 327) (human, UniProt Q07820 172-327); test: ELISA: Alphabody (500 nM) captured by immobilized anti-V5 antibody, five-fold dilutions of GST-MCL-1, detection with anti-GST-HRP, OD read at 492 nm and 630 nm
T1 construct: Produced in E. coli as an N-terminal GST fusion and purified using the GST-tag; also called recombinant MCL-1; GST-MCL-1; not shown: N-terminal GST tag and any linker or cleavage site between GST and MCL-1

[2] = molecular target: T2, GST-tagged recombinant human BCL-XL with a C terminal deletion of 24 amino acids (human, UniProt Q07817 1-209); test: ELISA: Alphabody (500 nM) captured by immobilized anti-V5 antibody, five-fold dilutions of GST-tagged recombinant protein, detection with anti-GST-HRP, OD read at 492 nm and 630 nm
T2 construct: domain: BCL-XL with a C terminal deletion of 24 amino acids; Produced in E. coli as an N-terminal GST fusion; also called GST-BCL-XL; not shown: Glutathione S Transferase (GST) tag at the N-terminus
Description: (§1) FIG. 13: Binding of recombinant BCL-2 family proteins to Alphabody AB1_pan_hiKR3-V5. Alphabody (500 nM) was captured by immobilized anti-V5 antibody (5 microg/ml) to a microtiterplate. Binding of five-fold dilutions of Glutathione S transferase (GST)-tagged recombinant BCL-2 family proteins MCL-1, BCL-XL and BCL-2a was detected using a anti-GST antibody conjugated to Horse Radish Peroxidase. Plates were read at 492 nm and 630 nm.
(§2) Maxisorp Nunc plates were coated with 100 microl anti-V5 antibody (5 microg/ml) in carbonate buffer pH 9.6 overnight at 4° C. The next day, plates were washed 3 times with Tris Buffered Saline containing 0.05% Tween 20 (TBST) and blocked with TBS containing 0.1% BSA and 0.5% gelatin for 2 h at 37° C. After washing plates 5 times with TBST, 500 nM AB1_pan_hiKR3-V5 Alphabody was added to the plates for 2 h at RT while shaking. Plates were washed 10 times with TBST and five-fold dilutions of Glutathione S transferase (GST) tagged recombinant BCL-2 family proteins (MCL-1, BCL-XL and BCL-2a) were added and further incubated for 2 h at RT while shaking. Binding of GST-tagged recombinant BCL-2 family proteins was detected using an anti-GST antibody conjugated to Horse Radish Peroxidase. […] Signals indicative for specific binding of AB1_pan_hiKR3-V5 to the particular BCL-2 family recombinant protein were read at 492 nm and 630 nm.

[3] = molecular target: T1, GST-tagged recombinant human MCL-1 …; test: as above
Description: as §1, §2

[4] = molecular target: T2, GST-tagged recombinant human BCL-XL …; test: ELISA: Alphabody (500 nM) captured by immobilized anti-V5 antibody, five-fold dilutions of GST-BCL-XL, detection with anti-GST-HRP, OD read at 492 nm and 630 nm
Description: as §1, §2

T1 sequence (Q07820 172-327 limits assumed): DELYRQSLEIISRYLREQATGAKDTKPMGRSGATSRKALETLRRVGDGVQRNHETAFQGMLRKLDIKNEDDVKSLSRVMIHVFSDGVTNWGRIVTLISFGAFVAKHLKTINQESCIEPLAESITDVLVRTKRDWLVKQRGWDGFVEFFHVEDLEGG
T2 sequence (Q07817 1-209, stated change not applied): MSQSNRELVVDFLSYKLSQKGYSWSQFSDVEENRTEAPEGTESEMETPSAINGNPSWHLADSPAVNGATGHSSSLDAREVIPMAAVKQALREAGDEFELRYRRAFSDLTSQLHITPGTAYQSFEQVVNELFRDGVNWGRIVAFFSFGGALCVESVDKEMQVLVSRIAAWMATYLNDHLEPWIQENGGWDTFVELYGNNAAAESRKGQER

| binding result [1] | EC50 (read off the curve) [2] [nM] | EC50 (read off the curve) [3] [nM] | EC50 (read off the curve) [4] [nM] | EC50 (read off the curve) [1] [nM] | Binder |
| --- | --- | --- | --- | --- | --- |
| no binding (tested: 200 nM) |  |  |  |  | Alphabody MB23_hiR-V5 (designed binder, Cationized Alphabody directed against IL-23, with His-tag and V5 tag; Used as control in the BCL-2 family ELISA; also called cationized MB23; control Alphabody MB23-hiR-V5) MSIEQIQKEITTIQEVIAAIQKYIYTMTGGSGGSGGMSIQQIQAAIRRIQRAIRRIQRAIRRMTGSGGGGSGMSIEEIQKQIAAIQEQIVAIYKQIMAMASHHHHHHGKPIPNPLLGLDST |
|  | ~5 | ~2 | ~5 | ~2 | Alphabody AB1_pan_hiKR3-V5 (designed binder, captured on the plate by anti-V5 antibody in the ELISA) MSIEEIQKQFKRIQKQIKRIAKQIKRMTGGSGGSGGMSIEEIAAQIAAIQLRIIGDQFNIYYMTGSGGGGSGGSIEEIKKSIRAIQKEIKKIQKKIKKMTPHHHHHHHHHHGKPIPNPLLGLDST |
|  |  |  |  | ~1 | Alphabody AB1_A2aF_hiKR3-V5 (designed binder) MSIQQIQKQFKRIQKQIKRIEKQIKRMTGGSGGSGGMSIEEITKQIAAIQLRIVGDQVQIYAMTGGSGGGSGGGSGGGSGGSIEEIKKSIRAIQKEIKKIQKKIKKMTPHHHHHHHHHHGKPIPNPLLGLDST |
